Read-outs that look alike come from different tables or passages of the source.
B1: Listeria monocytogenes GpsB, full-length wild type (natural protein, L. monocytogenes, UniProt Q8Y614 1-113, looked up)
chain: MTSEQFEYHLTGKEILEKEFKTGLRGYSPEDVDEFLDMVIKDYSTFTQEIEALQAENIRLVQELDNAPLRTSTQPAPTFQAAAQPAGTTNFDILKRLSNLEKHVFGNKLDDNE
B2: Listeria monocytogenes GpsB F91A F105A double mutant, full length (natural protein, L. monocytogenes, UniProt Q8Y614 1-113, looked up)
chain: MTSEQFEYHLTGKEILEKEFKTGLRGYSPEDVDEFLDMVIKDYSTFTQEIEALQAENIRLVQELDNAPLRTSTQPAPTFQAAAQPAGTTNADILKRLSNLEKHVAGNKLDDNE
B3: Listeria monocytogenes GpsB F91A, full length (natural protein, L. monocytogenes, UniProt Q8Y614 1-113, looked up)
chain: MTSEQFEYHLTGKEILEKEFKTGLRGYSPEDVDEFLDMVIKDYSTFTQEIEALQAENIRLVQELDNAPLRTSTQPAPTFQAAAQPAGTTNADILKRLSNLEKHVFGNKLDDNE
B4: Bacillus subtilis GpsB T75D, full length (natural protein, B. subtilis, UniProt P0CI74 1-98, looked up)
chain: MLADKVKLSAKEILEKEFKTGVRGYKQEDVDKFLDMIIKDYETFHQEIEELQQENLQLKKQLEEASKKQPVQSNDTNFDILKRLSNLEKHVFGSKLYD
B5: Bacillus subtilis GpsB T75E, full length (natural protein, B. subtilis, UniProt P0CI74 1-98, looked up)
chain: MLADKVKLSAKEILEKEFKTGVRGYKQEDVDKFLDMIIKDYETFHQEIEELQQENLQLKKQLEEASKKQPVQSNETNFDILKRLSNLEKHVFGSKLYD

Assays:
SEC-MALS [1] = target: the molecule itself; test: SEC-MALS
SEC-MALS [2] = target: the molecule itself; test: SEC-MALS; remark: listed apart in the source
SEC [3] = target: the molecule itself; test: SEC
SEC [4] = target: the molecule itself; test: SEC; remark: listed apart in the source

Protein	stoichiometry N (SEC-MALS [1])	binding result (SEC [4])	also measured
B1	6		
B2	2		stoichiometry N (SEC-MALS [2]): 3
B3			binding result (SEC [3]): binds
B4		binds	
B5		binds	

Reference: PMC5111876 (Microbial Drug Resistance, 2016)
